Earlier results, collected in article PMC9104438, “Application of a Fluorescence Anisotropy-Based Assay to Quantify Transglutaminase 2 Activity in Cell Lysates” (International Journal of Molecular Sciences, 2022).

Molecular target: T1, hTGase 2 (Homo sapiens, UniProt P21980)
T1 sequence (P21980 1-687): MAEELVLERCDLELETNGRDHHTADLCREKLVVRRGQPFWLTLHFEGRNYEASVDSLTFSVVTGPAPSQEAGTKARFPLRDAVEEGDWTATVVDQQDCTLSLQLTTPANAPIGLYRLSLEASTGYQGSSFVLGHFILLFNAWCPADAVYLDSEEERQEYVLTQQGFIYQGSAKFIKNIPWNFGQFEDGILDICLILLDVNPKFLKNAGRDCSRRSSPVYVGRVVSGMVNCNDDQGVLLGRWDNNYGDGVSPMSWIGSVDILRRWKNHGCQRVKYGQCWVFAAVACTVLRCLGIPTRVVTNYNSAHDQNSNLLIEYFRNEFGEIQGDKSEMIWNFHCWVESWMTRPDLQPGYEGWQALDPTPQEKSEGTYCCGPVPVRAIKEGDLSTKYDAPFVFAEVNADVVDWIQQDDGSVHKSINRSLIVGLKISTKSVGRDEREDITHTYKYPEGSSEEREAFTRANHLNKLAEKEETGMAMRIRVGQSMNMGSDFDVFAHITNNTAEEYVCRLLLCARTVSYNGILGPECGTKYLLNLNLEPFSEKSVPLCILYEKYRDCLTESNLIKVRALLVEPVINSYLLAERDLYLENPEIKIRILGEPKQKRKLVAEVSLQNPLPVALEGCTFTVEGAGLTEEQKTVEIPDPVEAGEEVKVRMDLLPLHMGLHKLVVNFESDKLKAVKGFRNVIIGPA
Set-up: purchased Zedira T022; method as in PMID 29664627
Conditions: hTGase 2 5 µg/mL, R-I-Cad 0.74 µM, mean (SEM), cited from earlier work

N,N-dimethylated casein [DMC]
Km: 2.78 µM | Ki (read-out: Ki (substrate inhibition)): 174 µM | Vmax (pH 8.0, 30 °C): 26.4 (2.8) mA mL s^−1 mg^−1
